Measurements taken from the supplement of paper PMC10567573.

B1: FAM189A2 (parent)
chain: PRCDLVDLGEGKICFCCEEFQPAK
B2: CDC25B (parent)
chain: KSPIAPCSLDKRVILIFHCEFSSE

Variants of: B1
Assay: protein stability index of a GFP-peptide fusion (GPS, HEK-293T) (PSI 1-6); higher = more stable
Conditions: c terminus: a fixed tail appended
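Further: lentivirally expressed fusions sorted by FACS into six bins by GFP to DsRed ratio, PSI derived from sequencing read proportions per bin multiplied by bin number.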

Protein stability index, by site and new letter:
K12: I 2.46; F 2.85; E 3.6; Y 2.42; N 2.7; L 2.42; G 2.21; S 3.38; R 1.99; C 3.45; Q 3.89; T 2.63; V 2.35; P 3.25; D 3.4; W 2.32; H 4.16; A 3.51; M 2.04
L5: D 3.95; H 4.84; S 3.03; F 2.6; M 2.86; W 2.16; C 4.89; K 4.28; G 4.44; N 3.52; R 2.98; Q 3.73; P 3.39; I 3.13; A 3.98; Y 2.85; V 3.02; E 3.84; T 3.47
P1: R 2.43; E 3.16; D 2.67; W 2.43; H 4.03; Q 2.9; L 2.84; Y 1.91; N 3.39; S 3; M 1.86; C 2.83; F 1.85; V 1.87; T 2.63; I 1.78; K 3.14; A 2.24; G 3.14
G11: H 2.81; Q 2.98; M 2.21; N 3.33; L 1.95; F 1.51; E 3.44; P 2.52; A 2.63; Y 2.52; S 2.8; C 2.45; T 2.64; D 3.28; I 1.86; R 2.55; V 1.05; W 2.69; K 2.4
I13: W 2.11; N 3.78; Y 2.3; L 2.72; V 2.86; F 3.02; H 3.89; P 3.41; R 3.44; S 3.57; E 3.73; Q 3.27; K 3.71; G 3.55; T 3.1; D 4.28; M 4.02; A 3.01; C 3.38
C3: P 2.89; W 2.69; D 3.53; V 3.33; S 2.43; K 3.07; H 3.31; A 2.01; E 3.55; R 2.63; Y 1.91; I 2.05; F 2.22; Q 3.26; M 2.3; N 2.25; L 2.97; G 2.98; T 2.44
E10: K 2.82; V 2.26; G 3; A 2.56; L 2.08; H 2.88; N 2.65; R 2.54; P 2.88; Q 2.73; W 1.85; M 2.01; Y 2.29; D 3; I 2.08; S 2.36; F 2.35; C 2.63; T 2.75
R2: N 2.9; K 2.46; T 2.94; S 3.06; A 2.83; W 1.98; I 2.83; H 2.58; L 2.8; P 3.8; C 3.55; M 2.41; Q 3.13; Y 2.25; F 1.65; D 3.72; V 2.17; E 3.35; G 3.18
V6: N 3.71; T 2.98; M 2.65; R 3.4; G 3.46; L 2.6; E 3.48; W 2.28; K 3.78; D 3.34; S 3.21; I 2.49; Q 3.92; H 4.45; C 4.15; P 3.03; Y 2.73; F 2.71; A 3.49
G9: C 2.91; N 2.28; F 1.77; W 2.08; Q 2.33; E 2.86; H 3.06; I 2.24; T 2.83; M 2.04; S 2.77; L 2.21; V 2.52; D 3.18; Y 2.94; R 2.14; K 2.96; P 2.99; A 2.9
L8: W 3.23; Q 4.32; D 3.67; H 3.98; I 3.13; C 3.87; N 3.73; F 3.46; M 3.74; V 2.97; S 3.97; P 3.58; Y 2.21; E 3.65; G 4.48; A 3.54; T 3.92; K 3.41; R 3.91
C14: I 2.39; D 4.07; A 3.62; E 4.24; H 3.48; F 2.16; L 3.15; K 3.94; G 3.56
D7: E 3.05; N 2.76; C 2.92; Q 2.2; R 2.6; V 1.89; A 2.61; K 3.76; M 1.93; I 1.71; P 3.17; L 2.3; H 3.25; W 2.24; T 2.79; S 2.21; F 2.03; G 3.28; Y 2.12
D4: R 3.56; H 2.85; K 3.44; F 2.11; Y 1.86; I 1.57; N 4.71; C 2.74; P 3.39; A 2.11; V 2.5; Q 3.44; G 2.26; E 3.27; M 2.46; S 2.7; T 2.7; L 1.67; W 1.16

Variants of: B2
Assay: as above
Conditions: c terminus: a fixed tail appended

Protein stability index of substitutions, site by site:
C19: N 1.32; A 3.06; T 3.92; D 2.34; W 2.31; Y 2.08; Q 4.16; I 2.77; E 1.85; H 1.89; K 2.03; R 2.96; P 2.75; S 4.17
E24: L 1.98; Q 2.38; Y 2.39; G 2.09; D 2.77; K 3.12; T 2.44; V 2.98
S23: V 2.95; M 2.11; F 4.12; A 4.14; W 3.34; Q 2.79; C 1.23; T 2.89; N 2.25; I 2.64; E 1.73; L 2.04
E20: M 2.51; G 2.81; P 3.36; K 1.64; S 3.75; A 1.82; N 3.58; I 2.55; F 2.05; D 2.58; V 2.73; H 2.2; C 4.34
F21: K 1.5; S 2.69; C 2.97; H 2.91; M 3.21; R 2.15; N 1.88; A 2.32; T 3.13; I 2.1; Q 2.53; G 2.94; D 1.51; P 2.66
H18: S 3.34; Y 2.5; P 2.44; N 2.26
S22: D 3.4; I 1.34; C 1.43; Y 2.31; A 3.41; K 2.08; T 2.88; Q 2.5; M 2.66; F 2.21; W 4.72; P 2.1; H 2.09
